Assay in all cases: SPR
On the technique in general: SPR reads the build-up and loss of mass on a sensor chip optically.

One data set addresses Protein A, recombinant (UniProt P38507). The note with it: aptamer immobilized; 100 mM NaCl, 20 mM Tris-HCl pH 7.6, 10 mM MgCl2, 5 mM KCl, 1 mM CaCl2, 0.005% surfactant P20, 21 °C (SPR Biacore X100).
Data set [1] concerns the target Protein A, native (Staphylococcus aureus) (UniProt P38507). The note with it: aptamer immobilized; 100 mM NaCl, 20 mM Tris-HCl pH 7.6, 10 mM MgCl2, 5 mM KCl, 1 mM CaCl2, 0.005% surfactant P20, 21 °C (SPR Biacore X100).
Data set [2] deals with Protein A, native, biotinylated (Staphylococcus aureus) (UniProt P38507). To be noted: protein immobilized, aptamer as analyte; 100 mM NaCl, 20 mM Tris-HCl pH 7.6, 10 mM MgCl2, 5 mM KCl, 1 mM CaCl2, 0.005% surfactant P20, 21 °C (SPR Biacore X100).

Usually Kd stands for the concentration at which binding is half-saturated.

Consider “ATACCAGCTTATTCAATTAGGCCAGATGAGGGGTGCCCATGGCGGGGTGGCTGCTCCAACAATCGTAATCAGTTAG [PA-C8 (3'-biotin)]”, for which the Kd in the data set with Protein A, recombinant was determined as 443 nM; in data set [1] it was 99 nM.
The corresponding values for “ATACCAGCTTATTCAATTGGGCACCACGGGAGTCGGCCACATTTGGAGTTGTTTTTGCACAATCGTAATCAGTTAG [PA#14/89 (3'-biotin)]” are 2660 nM and 467 nM.
On to “ATACCAGCTTATTCAATTGCGCACCACGGGAGTTGGCCACATTTGGAGTTGTTTTTGCACAATCGTAATCAGTTAG [PA-C10 (3'-biotin)]”, for which the Kd with Protein A, recombinant amounted to 2730 nM; in data set [1], 588 nM.
Turning to “ATACCAGCTTATTCAATTAGCAACATGAGGGGGATAGAGGGGGTGGGTTCTCTCGGCTACAATCGTAATCAGTTAG [PA#2/8 (3'-biotin)]”, the Kd with Protein A, recombinant amounted to 92 nM; in data set [1], 20 nM.
In the case of “ATACCAGCTTATTCAATTAGCAACATGAGGGGGATGGAGGGGGTGGGTTCTCTCGGCTACAATCGTAATCAGTTAG [PA-C4]”, the Kd with Protein A, recombinant was determined as 222 nM.
As to “ATACCAGCTTATTCAATTAGCAACATGAGGGGGGATAGAGGGGGTGGGTTCTCTCGGCTACAATCGTAATCAGTTAG [PA-C7]”, the Kd in the data set with Protein A, recombinant was 1610 nM.
Regarding “ATACCAGCTTATTCAATTAGCAACATGAGGGGGATAGAGGGGGTGGGTTCTCTCGGCTACAATCGTAATCAGTTAG [PA#2/8 (unmodified)]”, the Kd in data set [2] worked out at 3730 nM.

The values above are taken from article PMC5855864.
